Reference: patent US20220356245A1 (FORTY SEVEN, published 2022)
Positions count from the first letter of the chain named. In names and notes the source's numbering stands. Where two headings read alike, the source gives them in different places.

T1: mouse CD47 (mCD47) expressed on CHO cells (mouse, UniProt Q61735 19-303)
T1 construct: whole, on cells; also called CHO-mCD47
T1 sequence (looked up): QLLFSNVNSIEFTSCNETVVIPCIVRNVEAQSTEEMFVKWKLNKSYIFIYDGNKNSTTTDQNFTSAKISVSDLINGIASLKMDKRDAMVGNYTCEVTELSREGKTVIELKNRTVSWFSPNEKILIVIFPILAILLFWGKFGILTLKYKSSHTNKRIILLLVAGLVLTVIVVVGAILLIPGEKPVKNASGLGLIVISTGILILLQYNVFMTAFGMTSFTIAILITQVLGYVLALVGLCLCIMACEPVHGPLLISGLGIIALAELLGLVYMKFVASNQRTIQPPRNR

B1: h20-VH5-VL5 (candidate 20.25) (antibody, human IgG4 S228P, kappa, V domains shown)
VH: QVQLVQSGAEVKKPGASVKVSCKASGYSFTDYYINWVRQAPGQGLEWMGRIYPGIGNTYYNKKFKGRVTMTRYTSISTAYMELSRLRSDDTAVYFCARGHYGRGMDYWGQGTTVTVSS
VL: DIVMTQSPDSLAVSLGERATINCKSSQSLLNSIDQKNYLAWYQQKPGQPPKLLIYFASTKESGVPDRFSGSGSGTDFTLTISGLQAEDVAVYFCQQHYSTPWTFGGGTKVEIRR
notes: hIgG4-S228P/kappa; also called h20-H5-L5
B2: 5A3M3 (mouse antibody from Novimmune) (antibody, V domains shown)
VH: not shown
VL: DIQMTQSPSSLSASVGDRVTITCQASQSISSYLNWYQQKPGKAPKLLIYAASSLETGVPSRFSGSGSGTDFTFTISSLQPEDIATYYCQQKHPRGPRTFGQGTKVEIKR
B3: Candidate 20, chimeric hIgG format (hIgG1 or hIgG4) (antibody, V domains shown)
VH: QVQLKQSGAELVRPGASVKLSCKASGYSFTDYYINWVKQRPGQGLEWIARIYPGIGNTYYNKKFKGKATLTAEKSSSTAYMQLNSLTSEDSAVYFCARGHYGRGMDYWGQGTSVTVSS
VL: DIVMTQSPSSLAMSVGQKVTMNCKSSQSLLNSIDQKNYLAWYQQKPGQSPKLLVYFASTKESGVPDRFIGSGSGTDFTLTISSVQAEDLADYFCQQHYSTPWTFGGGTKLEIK
notes: also called Candidate 20 (hIgG format)
B4: Candidate 22, chimeric hIgG format (hIgG1 or hIgG4) (antibody, V domains shown)
VH: QVQLQQPGAELVKPGASVKLSCKASGYTFTTYWMHWVKQRPGQGLEWIGMIHPNSGTTNYNEKFKSKATLTVDKSSSSTYMQLSSLTSEDSAVYYCTRSHYYDGHFSYWGQGTLVTVSA
VL: DIVMSQSPSSLAVSAGEKVTMSCKSSQSLLNSRTRKNYLAWYQQKPGQSPKLLIYWASTRESGVPDRFTGSGSGTDFTLTISSVQAEDLAVYYCKQSYNLWTFGGGTRLEIK
notes: also called Candidate 22 (hIgG format)
B5: B6H12 (mouse IgG1, Abcam) (antibody, V domains shown)
VH: EVQLVESGGDLVKPGGSLKLSCAASGFTFSGYGMSWVRQTPDKRLEWVATITSGGTYTYYPDSVKGRFTISRDNAKNTLYLQIDSLKSEDTAIYFCARSLAGNAMDYWGQGTSVTVSS
VL: DIVMTQSPATLSVTPGDRVSLSCRASQTISDYLHWYQQKSHESPRLLIKFASQSISGIPSRFSGSGSGSDFTLSINSVEPEDVGVYYCQNGHGFPRTFGGGTKLEIK
B6: h20-VH1-VL3 (candidate 20.3) (antibody, human IgG4 S228P, kappa, V domains shown)
VH: QVQLLESGAVLARPGTSVKISCKASGYSFTDYYINWVKQRPGQGLEWIGRIYPGIGNTYYNKKFKGRAKLTAATSASIAYLEFSSLTNEDSAVYYCARGHYGRGMDYWGQGTLVTVSS
VL: B1 VL with D1E, M4L, P46A, P49S, S82D, G83S, F93Y, R113K
notes: hIgG4-S228P/kappa; also called h20-H1-L3
B7: h20-VH1-VL4 (candidate 20.4) (antibody, human IgG4 S228P, kappa, V domains shown)
VH: B6 VH
VL: B1 VL with G83S, T108A, R113K
notes: hIgG4-S228P/kappa; also called h20-H1-L4
B8: h20-VH1-VL5 (candidate 20.5) (antibody, human IgG4 S228P, kappa, V domains shown)
VH: B6 VH
VL: B1 VL
notes: hIgG4-S228P/kappa; also called h20-H1-L5
B9: h22-VH3-VL3 (candidate 22.11) (antibody, human IgG4 S228P, kappa, V domains shown)
VH: QVQLQESGAEVKKPGASVKVSCKASGYTFTTYWMHWVRQAPGQGLEWMGMIHPNSGTTNYNEKFKSRVTMTRDTSTSTVYMELSSLRSEDTAVYYCTRSHYYDGHFSYWGQGTLVTVSS
VL: EIVLTQSPDSLAVSLGERATINCKSSQSLLNSRTRKNYLAWYQQKAGQSPKLLIYWASTRESGVPDRFSGSGSGTDFTLTIDSLQAEDVAVYYCKQSYNLWTFGGGTKVEIKR
notes: hIgG4-S228P/kappa
B10: h22-VH3-VL4 (candidate 22.12) (antibody, human IgG4 S228P, kappa, V domains shown)
VH: B9 VH
VL: DIVMTQSPDSLPVSLGERATINCKSSQSLLNSRTRKNYLAWYQQKPGQPPKLLIYWASTRESGVPDRFTGSGSGTDFTLTISALQAEDVAVYYCKQSYNLWTFGQGTRLEIKR
notes: hIgG4-S228P/kappa

Columns and labels:
[1] = molecular target: T2, hu-sCD47-6His; extracellular domain of human CD47 antigen with 6His-tag (human); assay: SPR Biacore
T2 construct: also called hCD47-his; soluble hCD47
Description: (§1) An anti-human or anti-mouse IgG (Fc) was first immobilized on the surface of Serie S Sensor Chips CM5 using the human or mouse antibody capture and amine coupling kits, following the manufacturer's instructions (GE Healthcare). […] The mouse, chimerized or humanized antibodies to be tested were then captured onto the appropriate anti-mouse or anti-human IgG surface in all flow cells except flow cell 1 used as control, at concentration and contact time adjusted so that ˜300 RU were captured on the surface. Binding kinetics were studied by passing increasing concentrations of hCD47-his in a series of five 10 minute injections through all flow cells at a rate of 30 μL/min. […] Following the final injection, buffer was passed across each flow cell for 60 minutes (mouse) or 30 minutes (human) to monitor the dissociation of bound antigen. Regeneration of the binding surface was carried out at the end of the cycle by flowing 3 M MgCl₂ for 60 s at 20 μL/min followed by 10 mM glycine-HCl, pH 1.7 for 180 s at 10 μl/min (for human) or by flowing 10 mM glycine-HCl, ph 1.7 for 360 s at 10 μl/min (for mouse). A second cycle with the same antibodies but no antigen was run as a control. Kinetics binding constants were estimated by non-linear fitting of the sensogram data to the 1:1 binding model provided by the Biacore T200 evaluation software.

[2] = molecular target: T3, human CD47 (hCD47) expressed on cells (human, UniProt Q08722 19-323); assay: flow cytometry, Raji cells
T3 construct: Transfected CHO cells or endogenous CD47 of human cells; also called CHO-hCD47; CD47 on Raji cells

[3] = molecular target: T2, hu-sCD47-6His; extracellular domain of …; assay: SPR Biacore; head read as x 10^-4
Description: as §1

[4] = molecular target: T1, mouse CD47 (mCD47) expressed on CHO …; assay: flow cytometry, CHO-mCD47 cells (not shown)
[5] = molecular target: T3, human CD47 (hCD47) expressed on cells; assay: flow cytometry, Raji cells, competition with hSIRPα
[6] = molecular target: T3, human CD47 (hCD47) expressed on cells; assay: flow cytometry, Raji cells; remark: listed apart in the source
[7] = molecular target: T3, human CD47 (hCD47) expressed on cells; assay: flow cytometry, Raji cells, competition with His-hSIRPα
Protocol: The percent inhibition was plotted against antibody concentration and the IC50 values were calculated by using a nonlinear regression analysis model of the GraphPad Prism software.

[8] = molecular target: T2, hu-sCD47-6His; extracellular domain of …; assay: SPR Biacore T200, antibody captured, hCD47-his analyte;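 note: antibodies captured on anti-IgG (Fc) CM5 chip, five sequential 10 min antigen injections at rising concentrations, reference flow cell and antigen-free cycle as controls, 1:1 model fit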
Description: as §1

[9] = molecular target: T2, hu-sCD47-6His; extracellular domain of …; assay: SPR Biacore; remark: listed apart in the source
Description: as §1

[10] = molecular target: T3, human CD47 (hCD47) expressed on cells; assay: flow cytometry, Raji cells; remark: listed apart in the source
[11] = molecular target: T3, human CD47 (hCD47) expressed on cells; assay: flow cytometry, Raji cells, competition with hSIRPα; remark: listed apart in the source

| Binder | Kd [1] [nM] | kon [1] [M⁻¹ s⁻¹] | EC50 [2] [mg/L] | koff [3] [s⁻¹] | binding result [4] | IC50 [5] [mg/L] | also measured |
| --- | --- | --- | --- | --- | --- | --- | --- |
| B1 | 9.69 | 126000 | 0.159 | 0.00109 | no binding | 0.112 | – |
| B2 | – | – | – | – | – | – | EC50 [6]: 0.301 mg/L |
| B3 | – | – | – | – | – | – | IC50 [7]: 0.11 mg/L |
| B4 | – | – | – | – | – | – | IC50 [7]: 0.233 mg/L |
| B5 | – | – | – | – | – | – | Kd [8]: 5.14 nM; koff [8]: 6.59e-05 s⁻¹; kon [8]: 12900 M⁻¹ s⁻¹ |
| B6 | 7.33 | 131000 | 0.184 | 0.000839 | no binding | 0.228 | – |
| B7 | 7.58 | 126000 | 0.248 | 0.000772 | no binding | 0.261 | – |
| B8 | 3.53 | 198000 | 0.206 | 0.000595 | no binding | 0.111 | – |
| B9 | – | – | – | – | – | – | Kd [9]: 10.9 nM; koff [9]: 0.000306 s⁻¹; kon [9]: 28400 M⁻¹ s⁻¹; EC50 [10]: 0.139 mg/L; IC50 [11]: 0.096 mg/L |
| B10 | – | – | – | – | – | – | Kd [9]: 10 nM; koff [9]: 0.000252 s⁻¹; kon [9]: 25200 M⁻¹ s⁻¹; EC50 [10]: 0.108 mg/L; IC50 [11]: 0.116 mg/L |
